# Assay results reported in the RNAGym collection of RNA variant scans (doi:10.7554/elife.80360).
# B1: Hammerhead Ribozyme (parent)
# chain: ACCGGAUGUGCUUUCCGGUCUGAUGAGUCCGUGAGGACGAAACAG
# Variants of: B1
# Assay: self-cleavage, relative activity (ratio to wild type); higher = more cleavage; co-transcriptional
row,Variant,self-cleavage
1,U9C G25A,0.312
2,G5C U19C,0.269
3,G5U U13C,1.15
4,U7G U21C,0.641
5,U12A U24A,0.937
6,U14C A41U,0.296
7,G4U U14C,0.416
8,C38U G39C,0.584
9,C2U C3A,0.417
10,U12G G31C,1.09
11,U14G G36A,0.729
12,C16U U19A,0.344
13,C2A C20G,0.288
14,G18U A23U,0.342
15,U24A A42G,0.24
16,G17U G36A,0.621
17,G4A C29A,0.374
18,C3U U14C,0.669
19,C29G A34C,0.56
20,G25U A41U,0.337
21,G17U A40U,0.376
22,G5U C43U,0.371
23,U24A G45A,0.75
24,U24A G45C,0.639

row,Variant,self-cleavage
1,G5A U19C,0.565
2,C2U G35A,0.871
3,C2U G35C,0.647
4,U24C G33A,1.36
5,G5A G18A,0.47
6,A41G G45C,0.402
7,G18A A26G,0.331
8,G4C A34G,0.596
9,G4A A26U,0.472
10,C30G G35C,1.03
11,G27U C29U,0.316
12,C20A G39A,0.347
13,U12G C20G,0.32
14,G25U C30U,0.259
15,G25U C30A,0.293
16,C2G U19C,0.308
17,C30U A37G,1.21
18,U12G C38U,1.08
19,G8A G22A,0.403
20,A23U A40C,0.348
21,G4U C20U,0.364
22,U7G C20U,0.447
23,A23U G39A,0.331
24,U28C A41G,0.364

row,Variant,self-cleavage
1,A1G G39A,0.384
2,A26C U28A,0.572
3,A26C U28C,0.524
4,G5C A37G,0.44
5,U9G A26C,0.32
6,C2G U14A,0.314
7,G8U U32C,0.877
8,A1U A44G,0.971
9,U28C G35A,0.638
10,A6C C11U,0.592
11,A6C A26U,0.337
12,G8C G22U,0.341
13,U28G U32G,0.449
14,C11G U21C,0.987
15,C11G U21A,0.735
16,C2U G4U,0.335
17,C2U G4C,0.397
18,U12G U19A,0.299
19,C3A U9C,0.756
20,G10A G33A,1.21
21,C30G C38G,0.493
22,C2G G8C,0.302
23,U14C C16G,0.722
24,U9C C43U,0.38

row,Variant,self-cleavage
1,G4U C43G,0.295
2,C30A C43A,0.293
3,A1U U19C,0.617
4,C20G G33A,0.333
5,A37G A42G,0.264
6,U9C A26G,0.379
7,U13G C16U,0.836
8,C11G A42G,0.303
9,G8C A26G,0.278
10,G8U G31C,1.18
11,G5C A44C,0.345
12,C20U G39U,0.335
13,G8C A34G,1.11
14,A42G A44G,0.544
15,G5U U21C,0.668
16,U7G G35A,0.654
17,U12C U19G,0.371
18,C30U A41C,0.374
19,G10A G45C,0.93
20,G10A G45U,0.767
21,U9G G18U,0.4
22,G22C A23U,0.351
23,A26U A34U,0.584
24,G5C A26G,0.267

row,Variant,self-cleavage
1,A37G A40C,0.407
2,A26G G39U,0.343
3,C43A G45A,0.515
4,C2A A40U,0.35
5,C3G G25A,0.296
6,A1C A23C,0.287
7,A1G A37C,1.64
8,A1U A23C,0.385
9,G10C C38G,0.582
10,A26U A37U,0.545
11,G35U G45A,0.473
12,G39C A41G,0.328
13,G39C A41U,0.305
14,G22A G39A,0.367
15,U28A A40G,0.394
16,G17U A42C,0.394
17,U14C C38U,1.15
18,U9A A40U,0.367
19,U7G U12A,1.24
20,G18C C30A,0.451
21,G36A A37C,0.414
22,G17U G39C,0.348
23,U12A C29A,0.634
24,A34G A40C,0.44

row,Variant,self-cleavage
1,A41U C43A,0.321
2,G10A U19C,0.675
3,U19C A23C,0.299
4,U19C A23G,0.369
5,A34G C38A,0.349
6,U9G U12C,1.57
7,C2U G10A,1.22
8,U14G G35U,0.611
9,U13C C16U,0.976
10,U13C C16G,0.666
11,C3U U7C,0.743
12,G10U C43U,0.537
13,U14A C29U,0.557
14,U13C G18A,0.955
15,G31C,0.96
16,A6U U19A,0.337
17,U21G A44U,0.285
18,U9G U24G,0.671
19,C15G C30U,0.722
20,G5C G35C,0.324
21,C2A U32G,0.469
22,G18C C29G,0.302
23,U9A G39U,0.422
24,G22A U32A,0.306

row,Variant,self-cleavage
1,G5A G25A,0.327
2,G10U U21A,0.605
3,U14C G22C,0.294
4,U19A A44G,0.512
5,G10C A34C,0.424
6,A23U C38G,0.357
7,U28A C43A,0.292
8,U24C A40G,0.27
9,U24C A40U,0.281
10,C15A A37U,0.434
11,U14C U21A,0.347
12,G18A G33A,0.873
13,C30A U32A,0.797
14,A26G G45U,0.338
15,G5A C29A,0.445
16,C29G G35A,0.637
17,G10U G17U,0.848
18,G25U G36A,0.365
19,C3A U32A,0.7
20,C29G A42G,0.269
21,U21G U32C,0.523
22,G10U U32G,0.758
23,C3A A26U,0.399
